Laboratory results as given in US11255842B2, “Methods for detecting neutralizing antibodies to parathyroid hormone (PTH) and parathyroid hormone-related peptide (PTHRP) analog” (Radius Health, Inc., priority 2019, dated 2022).
Each block holds one substance with its values, some of them ahead of it.

How the values were obtained:
[1] = in vivo; cited from earlier work
PTH1R [2] = molecular target: T1, PTH1R (Rattus norvegicus, UniProt P25961); test: PTH dose response, cAMP induction in UMR-106 cells in 25% pooled human serum; format: cell-based; settings: interpolated from curve fit, rounded
T1 construct: any cells that express PTH1R and allows the induction of cAMP signaling; host or cells: UMR-106 rat osteosarcoma cells
T1 sequence (P25961 27-591): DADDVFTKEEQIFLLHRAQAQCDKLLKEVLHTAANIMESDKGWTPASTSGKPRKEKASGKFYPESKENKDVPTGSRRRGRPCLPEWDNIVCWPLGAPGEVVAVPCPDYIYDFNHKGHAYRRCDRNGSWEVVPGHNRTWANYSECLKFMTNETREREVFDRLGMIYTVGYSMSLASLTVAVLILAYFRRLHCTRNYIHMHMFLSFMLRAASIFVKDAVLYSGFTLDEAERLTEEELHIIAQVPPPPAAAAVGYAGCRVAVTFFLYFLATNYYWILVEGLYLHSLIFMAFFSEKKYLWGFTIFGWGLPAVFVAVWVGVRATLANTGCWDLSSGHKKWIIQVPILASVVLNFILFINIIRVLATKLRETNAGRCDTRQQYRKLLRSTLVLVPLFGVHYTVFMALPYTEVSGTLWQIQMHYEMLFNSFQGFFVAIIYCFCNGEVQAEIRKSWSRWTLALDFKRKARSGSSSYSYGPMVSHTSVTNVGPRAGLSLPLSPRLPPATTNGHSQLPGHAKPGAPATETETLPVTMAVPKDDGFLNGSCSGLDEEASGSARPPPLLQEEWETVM
Method: (§1) UMR-106 cells are maintained in growth medium (UMR-GM, Dulbecco's Modified Eagle's Medium (DMEM) containing 10% Fetal Bovine Serum, 1% Pen-Strep (10 k units Penicillin—10 k ug/mL Streptomycin) and 1% L-glutamine) in 75-150 cm^2 tissue culture flasks until ready for use. Cells are split at a ratio between 1:4 and 1:20 when growth reaches ≥70% confluence for routing culture maintenance. Prior to initiating an assay, cells are plated in sub-culturing flasks (25 cm^2 to 150 cm^2) at a density of 10^6 cells/5 cm^2 (example 5e6 cells for T-75). The following day, flasks are starved with assay medium (UMR-Am, Phenol Red-Free DMEM, containing 1% Bovine Serum Albumin). The following day validation samples and antibody controls are pre-incubated with PTH peptide for a minimum of 30 minutes. The validation samples and controls are adjusted such that the final assay concentration of serum is equal to the assay minimum required dilution of 1:4. Twenty microliters of samples and/or controls are placed on a MSD cAMP assay plate. […] Forty microliters of the cell suspension are added to the cAMP assay plate. […] One hundred microliters of 2×MSD Read Buffer T are then added to the plates and plates are read immediately on an MSD 6000 or 56000 Sector Imager. […]

PTH1R [3] = molecular target: T1, PTH1R; test: PTHrP dose response, cAMP induction in UMR-106 cells; format: cell-based; settings: interpolated from curve fit, rounded
Method: as §1, with “PTHrP” for “PTH peptide”, “S6000” for “56000”

Substance: Abaloparatide: parathyroid hormone-related peptide (PTHrP) (1-34) analog which acts as a PTH1 receptor (PTH1R) agonist
antibody-positive patients who developed neutralizing antibodies to Abaloparatide [1]: 68%
patients who developed anti-Abaloparatide antibodies [1]: 49%
patients who developed cross-reactivity to PTHrP [1]: 2.3%
patients who developed cross-reactivity to parathyroid hormone (PTH) [1]: 0%
patients who developed neutralizing antibodies to PTHrP [1]: 43%

EC20 of the PTH response (PTH1R [2]): 0.728 ng/mL
EC30 of the PTH response (PTH1R [2]): 0.436 ng/mL
Substance: PTH: Parathyroid Hormone Peptide (1-34)(Human), Phoenix Pharmaceuticals P/N 055-08

EC20 of the PTHrP response (PTH1R [3]): 0.728 ng/mL
EC30 of the PTHrP response (PTH1R [3]): 0.436 ng/mL
Substance: PTHrP: PTHrP (1-34)(Human, Rat, Mouse) peptide, Phoenix Pharmaceuticals P/N 056-04
